From article PMC9396414, “An antagonistic monoclonal anti–Plexin-B1 antibody exerts therapeutic effects in mouse models of postmenopausal osteoporosis and multiple sclerosis” (The Journal of Biological Chemistry, 2022)

Molecular target: T1, human Sema4D (semaphorin 4D) (human, UniProt Q92854 22-734)
T1 construct: Semaphorin 4D (Sema4D, CD100), human, recombinant protein bought from R&D Systems, cat. no; 7470-S4; check against the vendor's data sheet; also called CD100; source: bought: R&D (7470-S4)
T1 sequence (looked up): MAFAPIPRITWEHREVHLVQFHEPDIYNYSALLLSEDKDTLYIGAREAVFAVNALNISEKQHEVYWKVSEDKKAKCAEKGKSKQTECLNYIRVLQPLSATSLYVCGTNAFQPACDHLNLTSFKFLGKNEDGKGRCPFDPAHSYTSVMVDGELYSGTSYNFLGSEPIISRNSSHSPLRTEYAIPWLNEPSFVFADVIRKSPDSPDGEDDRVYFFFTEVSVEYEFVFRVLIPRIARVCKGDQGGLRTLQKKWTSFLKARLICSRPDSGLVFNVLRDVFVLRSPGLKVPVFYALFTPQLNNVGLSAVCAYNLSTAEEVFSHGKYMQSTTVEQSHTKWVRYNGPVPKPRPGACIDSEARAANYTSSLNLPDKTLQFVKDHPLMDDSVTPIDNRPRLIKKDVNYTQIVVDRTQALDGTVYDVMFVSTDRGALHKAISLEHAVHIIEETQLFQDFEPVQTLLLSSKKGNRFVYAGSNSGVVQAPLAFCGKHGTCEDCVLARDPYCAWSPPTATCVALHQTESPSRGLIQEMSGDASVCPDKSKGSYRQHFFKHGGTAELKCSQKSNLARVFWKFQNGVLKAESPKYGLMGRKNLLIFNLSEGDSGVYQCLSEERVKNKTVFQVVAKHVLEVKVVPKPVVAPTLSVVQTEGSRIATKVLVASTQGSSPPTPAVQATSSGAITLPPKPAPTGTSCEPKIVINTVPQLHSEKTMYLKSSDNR
Assay: BLI; OctetRED384; 5 μg/ml biotinylated human Plexin-B1 (20–535)-Avi-6xHis captured on an SA biosensor in 1xKinetics buffer; then 50 nM antibody or buffer, then 50 nM human Sema4D; qualitative analysis of association curves
Settings: both partners purified

binding result: binds
B1: biotinylated human Plexin-B1 (20–535)-Avi-6xHis (domain or fragment, UniProt O43157 20-535, looked up)
chain: LQPLPPTAFTPNGTYLQHLARDPTSGTLYLGATNFLFQLSPGLQLEATVSTGPVLDSRDCLPPVMPDECPQAQPTNNPNQLLLVSPGALVVCGSVHQGVCEQRRLGQLEQLLLRPERPGDTQYVAANDPAVSTVGLVAQGLAGEPLLFVGRGYTSRGVGGGIPPITTRALWPPDPQAAFSYEETAKLAVGRLSEYSHHFVSAFARGASAYFLFLRRDLQAQSRAFRAYVSRVCLRDQHYYSYVELPLACEGGRYGLIQAAAVATSREVAHGEVLFAAFSSAAPPTVGRPPSAAAGASGASALCAFPLDEVDRLANRTRDACYTREGRAEDGTEVAYIEYDVNSDCAQLPVDTLDAYPCGSDHTPSPMASRVPLEATPILEWPGIQLTAVAVTMEDGHTIAFLGDSQGQLHRVYLGPGSDGHPYSTQSIQQGSAVSRDLTFDGTFEHLYVMTQSTLLKVPVASCAQHLDCASCLAHRDPYCGWCVLLGRCSRRSECSRGQGPEQWLWSFQPELGCLQ
modifications: biotin on the Avi-tag (in vitro, BirA enzyme)
notes: Plexin-B1, human, extracellular region residues 20-535; cloned as fragment 1-535 and secreted as 20-535; the Avi-tag stands between the C-terminus of the fragment and the 6xHis tag; The SPR experiments with the antibodies used the form without the Avi-tag, Plexin-B1 (20–535)-6xHis; The cell assays used full-length human Plexin-B1-FLAG (GenScript, pcDNA3.1); also called human recombinant Plexin-B1 …
